{"source": "patent US20120053320A1", "about": "(BOARD OF TRUSTEES OF MICHIGAN STATE UNIVERSITY, published 2012)", "biological_target": "the molecule itself", "experiment": "SDS-PAGE, immunoblot and MALDI-TOF of purified and depolymerized pili (self-assembly)", "data": [{"protein": "PilA pilin subunit of Geobacter sulfurreducens (mature PilA, ca. 6.5-7 kDa band from octyl-glucoside-depolymerized pili) (other, Native protein from strain PCA, denatured on SDS-PAGE and blotted; also called nanowire pilin subunit; PilA band) FTLIELLIVVAIIGILAAIAIPQFSAYRVKAYNSAASSDLRNLKTALESAFADDQTYPPES", "values": [{"measurement": "binding result", "result": "binds"}]}]}
